Assay results published in publication PMC10629557, “Regulation of replication origin licensing by ORC phosphorylation reveals a two-step mechanism for Mcm2-7 ring closing” (Proceedings of the National Academy of Sciences of the …, 2023).

B1: GST-Sic1 (natural protein, S. cerevisiae, UniProt P38634 1-284, looked up)
chain: MTPSTPPRSRGTRYLAQPSGNTSSSALMQGQKTPQKPSQNLVPVTPSTTKSFKNAPLLAPPNSNMGMTSPFNGLTSPQRSPFPKSSVKRTLFQFESHDNGTVREEQEPLGRVNRILFPTQQNVDIDAAEEEEEGEVLLPPSRPTSARQLHLSLERDEFDQTHRKKIIKDVPGTPSDKVITFELAKNWNNNSPKNDARSQESEDEEDIIINPVRVGKNPFASDELVTQEIRNERKRAMLRENPDIEDVITYVNKKGEVVEKRRLTDEEKRRFKPKALFQSRDQEH
notes: source: E. coli BL21-DE3-Rosetta (plasmid pGEX-Sic1), purified (glutathione elution)
B2: FLAG-Clb5-Cdk1 (complex)
chain 1: MGENHDHEQSIKRNSMIYNENERQLCNSNLKILQNKRALSKNDSSSKQQVQDSKPRRALTDVPVNNNPLSQNKRIVAGSKAAKVRREENIRPIVSAVQKRQIYNDRTAAEQEEEEEEEGEDDDAASIVNKKRRIDAEGVSEIVGWQDLDYVEKDDTAMVAEYSAEIFAFLYRRELETLPSHNYLLDKTSKYYLRPSMRTILVDWLVEVHEKFQCYPETLFLSINLMDRFLAKNKVTMNKLQLLAVTSLFIAAKFEEVNLPKLAEYAYITDGAASKNDIKNAEMFMLTSLEFNIGWPNPLNFLRRISKADDYDPVNRNIGKFILEYAYCCHQFIHLPPSTVSAMAMYIARRMTNRNKNELWNGTLQHYSGGIDPIHDEAFQSLCIDLVKDIASSKTHLDSLILKYKKPRYGSVYFQTFKWCTSEMHSNFQNLFNLK
chain 2: not shown
notes: Clb5, S-phase B-type cyclin, S. cerevisiae; Cdk1 (Cdc28), cyclin-dependent kinase, S. cerevisiae; also called Clb5-Cdc28; source: S. cerevisiae strain ySK119, purified

Columns and labels:
[1] = target: B2; test: co-IP; purified proteins: 5 pmol FLAG-Clb5-Cdk1 and 10 pmol ORC in 20 uL SM buffer with 1 mM ATP, 20 min; 10 pmol GST-Sic1 added to one of two reactions for 5 min; magnetic anti-Flag beads, 3 washes, elution with 3xFLAG peptide, SDS gel; details: both partners purified
[2] = target: T1, origin recognition complex (ORC), wild type, unphosphorylated (S. cerevisiae, UniProt P54784 1-914; P32833 1-620; P54790 1-616; P54791 1-529; P50874 1-479; P38826 …); test: as above; details: both partners purified
T1 construct: Orc1, subunit of the origin recognition complex, S. cerevisiae; Orc2, subunit of the origin recognition complex, S. cerevisiae; Orc3, subunit of the origin recognition complex, S. cerevisiae; Orc4, subunit of the origin recognition complex, S. cerevisiae; Orc5, subunit of the origin recognition complex, S. cerevisiae; Orc6, subunit of the origin recognition complex, S. cerevisiae; For the …

Chain of FLAG-Clb5-Cdk1 (P00546 whole entry): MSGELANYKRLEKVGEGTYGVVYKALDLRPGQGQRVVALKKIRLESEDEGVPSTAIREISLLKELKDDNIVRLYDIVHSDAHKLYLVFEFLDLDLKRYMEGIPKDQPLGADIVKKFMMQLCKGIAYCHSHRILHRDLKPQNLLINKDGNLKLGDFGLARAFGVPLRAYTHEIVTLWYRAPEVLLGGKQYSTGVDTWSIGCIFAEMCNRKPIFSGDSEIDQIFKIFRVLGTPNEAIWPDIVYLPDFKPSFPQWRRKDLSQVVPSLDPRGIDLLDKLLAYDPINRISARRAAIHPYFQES

binding result [1]	binding result [2]	Binder
binds		B1
	binds	B2
